Patent publication US20220411533A1 (Boehringer Ingelheim, published 2022)

T1: human Trop2 recombinantly expressed on HEK293 cells (full-length, C-terminal Myc-DDK-tag) (human, UniProt P09758 27-323)
T1 construct: UniProt P09758 is printed for human TROP2; also called trophoblast cell-surface antigen 2; not shown: C-terminal Myc-DDK-tag of the Origene construct #RC202519
T1 sequence: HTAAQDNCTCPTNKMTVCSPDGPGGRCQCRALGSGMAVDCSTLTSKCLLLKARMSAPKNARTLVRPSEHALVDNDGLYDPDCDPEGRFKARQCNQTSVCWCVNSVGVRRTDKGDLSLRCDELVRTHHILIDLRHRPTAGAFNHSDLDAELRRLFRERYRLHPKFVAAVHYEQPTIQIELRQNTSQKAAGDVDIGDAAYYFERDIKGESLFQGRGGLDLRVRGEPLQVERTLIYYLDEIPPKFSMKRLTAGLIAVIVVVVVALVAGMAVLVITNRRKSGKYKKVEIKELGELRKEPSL

B1: Trop2#1 (antibody, V domains shown)
VH: EVQLQQSGPELLKPGASVKISCKASGYTFTDYTMHWVKQSHGKSLEWIGGIYPNYGDTNYNEKFKDKATLTVDESSSTAYMELRSLTSEDSAVYYCSRKTVLLRLRYFDVWGTGTTVTVSS
VL: DIQMTQSPASLSASVGETVTITCRASGNIHNYLAWYQQKQGKSPQLLVYNAITLADGVPSRFSGSGSGTQYSLKINSLQPEDFGSYYCQHFWSTPFTFGSGTKLEIK
B2: Trop2#7 (antibody, V domains shown)
VH: EVQLQQSGPELVKPGASVKMSCRASGYTFTSYAMHWVKQKPGQGLEWIGYINPYNGGTKYNEKFKGRATLTSDKSSSTAYMELSSLTSEDSAVYYCAREGIYYGAWFAYWGQGTLVTVSA
VL: DIQMTQSSSSFSVSLGDRVTITCKASEDIYNRLAWFQQKPGNAPRLLISGATSLETGVPSRFRGSRSGKDYTLSITSLQTEDVATYYCQQYWSTWTFGGGTKLEIK
B3: Trop2#5 (antibody, V domains shown)
VH: EVQLQQSGPDLVKPGASVKMSCKASGFIFTDYYMNWVKQSHGKSLEWIGYIYPNNGATAYNQKFKGKATLTVDKSSSTAYMELRSLTSEDSAVYYCARESDFYAMDYWGQGTSVTVSS
VL: DVVMTQTPLSLPVSLGDQASISCRSSQSLVHSHGNIYLHWYLQKPGLSPKLLIFKVSNRFSGVPDRFSGSGSGTDFTLKISRVEAEDLGVYFCSQSTHVWTFGGGTKLEIK

Molecular target: T1, human Trop2 recombinantly expressed on …
Experiment: flow cytometry based Scatchard method on HEK293 cells expressing Trop2

Row | Kd [nM] | Binder
1 | 2.2 | B1
2 | 0.4 | B2
3 | 0.6 | B3
